Results: PMC3889205 (FEBS letters, 2013)
Where two headings read alike, the source gives them in different places.

Assays:
Test in all cases: FRET or BRET
[1] = target: T1, Cy3-labeled β-galactosidase (UniProt P00722 1-1024 = β-galactosidase, Cy3 fluorophore label (site not stated))
[2] = target: T2, Cy3-labeled recombinant rat hepatocyte nuclear factor 4α (rat, UniProt P22449 1-474, Cy3 fluorophore label (site not stated))
T2 sequence (looked up): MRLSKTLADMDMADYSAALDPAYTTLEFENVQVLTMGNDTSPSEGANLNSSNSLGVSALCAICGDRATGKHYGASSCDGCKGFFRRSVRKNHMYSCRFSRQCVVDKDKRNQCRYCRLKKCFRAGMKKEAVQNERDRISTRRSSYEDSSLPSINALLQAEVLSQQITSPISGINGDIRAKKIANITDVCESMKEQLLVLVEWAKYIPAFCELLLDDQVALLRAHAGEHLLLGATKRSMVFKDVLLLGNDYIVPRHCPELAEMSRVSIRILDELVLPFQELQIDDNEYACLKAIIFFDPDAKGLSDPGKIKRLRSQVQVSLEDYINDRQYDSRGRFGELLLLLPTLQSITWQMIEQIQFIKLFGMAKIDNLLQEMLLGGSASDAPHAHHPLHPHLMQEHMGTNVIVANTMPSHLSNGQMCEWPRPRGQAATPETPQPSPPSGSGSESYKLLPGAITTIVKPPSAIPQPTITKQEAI

[3] = target: T1, Cy3-labeled β-galactosidase; remark: listed apart in the source
[4] = target: T2, Cy3-labeled recombinant rat hepatocyte …; remark: listed apart in the source

T1 sequence (P00722 whole entry): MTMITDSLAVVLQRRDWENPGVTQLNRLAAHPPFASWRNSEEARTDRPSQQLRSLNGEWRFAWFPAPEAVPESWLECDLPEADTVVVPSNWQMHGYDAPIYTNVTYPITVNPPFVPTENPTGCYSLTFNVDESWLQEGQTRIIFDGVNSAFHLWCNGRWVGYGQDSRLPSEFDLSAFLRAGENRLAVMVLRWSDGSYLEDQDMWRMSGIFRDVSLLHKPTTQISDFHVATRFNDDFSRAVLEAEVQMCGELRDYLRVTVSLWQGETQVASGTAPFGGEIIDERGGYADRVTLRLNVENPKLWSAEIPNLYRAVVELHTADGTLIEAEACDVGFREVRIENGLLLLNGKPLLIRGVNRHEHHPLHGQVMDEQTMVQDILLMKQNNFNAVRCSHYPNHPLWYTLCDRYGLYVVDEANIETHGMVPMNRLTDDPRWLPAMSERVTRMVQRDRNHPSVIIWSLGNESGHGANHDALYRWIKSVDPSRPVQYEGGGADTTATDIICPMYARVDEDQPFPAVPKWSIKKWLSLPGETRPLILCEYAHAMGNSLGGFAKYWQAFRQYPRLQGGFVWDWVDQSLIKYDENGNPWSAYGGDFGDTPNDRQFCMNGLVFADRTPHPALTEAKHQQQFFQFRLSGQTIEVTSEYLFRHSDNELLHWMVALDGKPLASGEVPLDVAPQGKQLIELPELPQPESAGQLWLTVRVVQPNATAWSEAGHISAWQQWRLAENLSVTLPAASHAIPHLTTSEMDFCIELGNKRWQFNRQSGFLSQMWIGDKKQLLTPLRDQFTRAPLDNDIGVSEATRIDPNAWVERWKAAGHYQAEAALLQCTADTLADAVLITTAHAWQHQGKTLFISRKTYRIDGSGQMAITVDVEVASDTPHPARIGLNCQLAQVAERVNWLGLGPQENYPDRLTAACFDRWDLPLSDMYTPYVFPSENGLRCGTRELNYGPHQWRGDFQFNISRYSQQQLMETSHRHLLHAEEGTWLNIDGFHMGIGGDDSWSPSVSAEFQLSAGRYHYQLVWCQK

B1: Cy5-labeled recombinant rat liver-type fatty acid binding protein (natural protein, UniProt P02692 1-127, looked up)
chain: MNFSGKYQVQSQENFEPFMKAMGLPEDLIQKGKDIKGVSEIVHEGKKVKLTITYGSKVIHNEFTLGEECELETMTGEKVKAVVKMEGDNKMVTTFKGIKSVTEFNGDTITNTMTLGDIVYKRVSKRI
modifications: Cy5 fluorophore label (site not stated)
[1]
  Kd: > 10000 nM
[2]
  Kd: 250 nM
[3]
  Kd: > 10000 nM
[4]
  Kd: 300 nM
